Among the data in US20190359719A1 are Ka and Kd values, retold here.

pKd: −log10 of the molar value.

This assay addresses c-Met (UniProt P08581). Kind of assay: Biacore SPR.

c-Met, sequence (P08581 25-932): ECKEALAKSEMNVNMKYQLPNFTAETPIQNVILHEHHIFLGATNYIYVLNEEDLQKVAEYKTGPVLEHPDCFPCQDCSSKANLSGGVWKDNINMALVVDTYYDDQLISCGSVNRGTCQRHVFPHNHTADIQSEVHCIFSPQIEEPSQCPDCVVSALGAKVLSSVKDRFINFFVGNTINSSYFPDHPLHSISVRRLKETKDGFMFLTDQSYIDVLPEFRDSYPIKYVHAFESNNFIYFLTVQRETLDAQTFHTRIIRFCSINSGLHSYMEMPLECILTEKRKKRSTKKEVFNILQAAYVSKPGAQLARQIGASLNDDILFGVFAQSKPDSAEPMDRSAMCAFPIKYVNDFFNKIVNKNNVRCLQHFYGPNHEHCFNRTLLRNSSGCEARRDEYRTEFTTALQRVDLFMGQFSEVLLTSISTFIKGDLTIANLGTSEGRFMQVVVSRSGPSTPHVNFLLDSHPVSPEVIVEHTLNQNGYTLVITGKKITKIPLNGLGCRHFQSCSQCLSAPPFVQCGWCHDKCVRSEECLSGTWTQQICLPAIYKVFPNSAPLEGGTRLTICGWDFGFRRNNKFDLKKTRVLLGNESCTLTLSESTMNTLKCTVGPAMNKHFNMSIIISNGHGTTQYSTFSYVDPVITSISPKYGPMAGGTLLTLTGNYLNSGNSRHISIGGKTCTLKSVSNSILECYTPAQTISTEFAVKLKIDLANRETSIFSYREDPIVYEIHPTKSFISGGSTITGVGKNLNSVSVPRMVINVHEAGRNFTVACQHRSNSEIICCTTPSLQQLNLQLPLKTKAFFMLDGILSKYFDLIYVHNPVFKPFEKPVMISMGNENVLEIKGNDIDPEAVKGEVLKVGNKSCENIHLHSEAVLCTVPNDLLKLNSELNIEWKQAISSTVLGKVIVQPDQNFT

Consider 5D5, for which the Ka worked out at 5.89e+09 M⁻¹ and the pKd is 9.77.
